Assay results taken from paper PMC10885410, “Mining and functional characterization of NADPH-cytochrome P450 reductases of the DNJ biosynthetic pathway in mulberry leaves” (BMC Plant Biology, 2024).

What was measured:
[1] = test system: NC(=O)C1=CN([C@@H]2O[C@H](COP(=O)(O)OP(=O)(O)OC[C@H]3O[C@@H](n4cnc5c(N)ncnc54)[C@H](OP(=O)(O)O)[C@@H]3O)[C@@H](O)[C@H]2O)C=CC1; assay: purified protein; conditions: cytochrome c 200 μM, 50 mM Tris-HCl pH 7.4, 0.1 mM EDTA, 25 °C, varied: cofactor
[2] = target: T1, MaC3'H-MaCPR2 (Morus alba, UniProt A0A5P9L9Q5); assay: yeast feeding, product by HPLC and LC-MS; type: cell-based; conditions: 100 μM fed to yeast culture, 48 h, 30 °C; needs co-expressed MaCPR2
T1 construct: full ORFs of MaC3'H and MaCPR2 (715 aa) co-expressed from pESC-Trp (GAL1/GAL10) in Saccharomyces cerevisiae INVSc1; with NADPH--cytochrome P450 reductase
T1 sequence (A0A5P9L9Q5 1-509): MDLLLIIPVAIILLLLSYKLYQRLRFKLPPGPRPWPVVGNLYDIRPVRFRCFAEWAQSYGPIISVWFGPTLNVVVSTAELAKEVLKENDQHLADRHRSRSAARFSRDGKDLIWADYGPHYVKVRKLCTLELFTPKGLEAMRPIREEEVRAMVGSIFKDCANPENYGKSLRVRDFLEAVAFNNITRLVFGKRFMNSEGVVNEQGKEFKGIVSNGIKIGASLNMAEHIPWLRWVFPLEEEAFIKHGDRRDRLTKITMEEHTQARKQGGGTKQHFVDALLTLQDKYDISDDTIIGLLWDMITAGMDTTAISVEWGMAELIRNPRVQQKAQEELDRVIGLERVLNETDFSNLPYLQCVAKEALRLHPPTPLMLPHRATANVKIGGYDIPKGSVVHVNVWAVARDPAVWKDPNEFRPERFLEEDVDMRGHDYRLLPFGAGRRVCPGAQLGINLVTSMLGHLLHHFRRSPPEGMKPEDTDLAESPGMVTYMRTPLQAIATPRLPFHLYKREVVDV

| Compound | Km [1] | Vmax [1] | yeast feeding, product by HPLC and LC-MS [2] |
| --- | --- | --- | --- |
| MaCPR2 (Morus alba) | 13.93 ± 1.54 µM | 2.43 µmol/min/mg |  |
| O=C(/C=C/c1ccc(O)c(O)c1)O[C@@H]1C[C@](O)(C(=O)O)C[C@@H](O)[C@H]1O [chlorogenic acid] |  |  | expected product chlorogenic acid was detected in MaC3'H-MaCPR2/pESC-Trp/INVSCI engineered bacteria |
| O=C(/C=C/c1ccc(O)cc1)O[C@@H]1C[C@](O)(C(=O)O)C[C@@H](O)[C@H]1O [3-O-p-coumaroylquinic acid] |  |  | transfers electrons to MaC3'H hydroxylase, thus transforming 3-O-p-coumaroylquinic acid into chlorogenic acid |
